Laboratory results: article doi:10.1101/2025.08.21.671625, “α-catenin phosphorylation is actomyosin-sensitive and required for epithelial barrier functions through Afadin” (bioRxiv, 2025)

Biological target: T1, full length αE-cat R551A (human, UniProt P35221 1-906, R551A)
T1 construct: αE-catenin (CTNNA1), human, full length, M3-domain salt-bridge mutant R551A; also called GST-αE-catenin (human) R551A
T1 sequence (looked up): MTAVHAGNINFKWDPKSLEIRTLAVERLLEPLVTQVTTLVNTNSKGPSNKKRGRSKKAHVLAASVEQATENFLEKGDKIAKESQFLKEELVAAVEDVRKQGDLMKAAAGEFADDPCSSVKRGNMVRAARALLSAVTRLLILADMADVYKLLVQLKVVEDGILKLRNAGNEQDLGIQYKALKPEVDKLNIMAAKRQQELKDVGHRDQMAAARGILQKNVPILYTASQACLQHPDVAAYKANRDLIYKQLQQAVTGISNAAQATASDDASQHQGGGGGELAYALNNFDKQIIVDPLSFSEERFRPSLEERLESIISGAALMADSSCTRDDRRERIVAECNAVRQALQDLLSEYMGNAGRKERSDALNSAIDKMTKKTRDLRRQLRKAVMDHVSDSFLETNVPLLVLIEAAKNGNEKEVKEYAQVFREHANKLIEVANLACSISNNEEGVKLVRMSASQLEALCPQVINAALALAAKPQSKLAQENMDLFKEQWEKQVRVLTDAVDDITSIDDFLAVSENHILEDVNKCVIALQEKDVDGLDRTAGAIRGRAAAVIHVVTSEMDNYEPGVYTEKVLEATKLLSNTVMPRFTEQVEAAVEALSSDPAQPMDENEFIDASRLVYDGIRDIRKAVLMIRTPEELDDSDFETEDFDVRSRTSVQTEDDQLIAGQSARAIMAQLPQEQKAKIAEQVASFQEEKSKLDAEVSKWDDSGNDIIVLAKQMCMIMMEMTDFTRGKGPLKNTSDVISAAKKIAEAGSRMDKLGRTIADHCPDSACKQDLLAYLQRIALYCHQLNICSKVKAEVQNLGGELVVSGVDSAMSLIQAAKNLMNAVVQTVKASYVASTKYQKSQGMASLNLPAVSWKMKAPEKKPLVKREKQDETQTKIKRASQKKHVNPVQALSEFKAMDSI
Test: pull-down; GST-Afdn-CC-ABR (or GST control) pre-bound to glutathione resin, mixed with α-cat prey proteins, washed, eluted with free glutathione; interaction strength assessed by Coomassie staining
Conditions: both partners purified

B1: GST-Afadin-Coiled-coil α-cat binding region (Afadin-CC-ABR; amino acids 1391–1449) (domain or fragment, rat)
chain: MDLPLPPPPANQAAPQSAQVAAAERKKREEHQRWYEKEKARLEEERERKRREQERKLGQ
notes: cDNA from the Takai lab; also called GST-Afadin-CC-ABR; GST-Afdn-CC-ABR; not shown: GST, N-terminal, kept
binding result: binds
